Assays:
FCGR1A (human) = FCGR1A (human) (UniProt P12314); experiment: flow cytometry, HEK293T membrane protein array
F11R (human) = F11R (human) (UniProt Q9Y624); experiment: flow cytometry, HEK293T membrane protein array, 20 µg/mL and 5 µg/mL
human BCMA = target: T1, human BCMA (human, UniProt Q02223 1-184); experiment: flow cytometry, HEK293T membrane protein array
T1 construct: whole, on cells; also called B-cell maturation antigen; TNFRSF17
T1 sequence (looked up): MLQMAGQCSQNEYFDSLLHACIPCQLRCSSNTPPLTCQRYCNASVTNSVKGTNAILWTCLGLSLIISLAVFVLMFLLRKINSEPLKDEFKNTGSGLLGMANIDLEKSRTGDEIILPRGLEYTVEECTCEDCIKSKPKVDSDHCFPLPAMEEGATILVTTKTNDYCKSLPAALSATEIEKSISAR
Source text: (§1) In the membrane protein array, genetic engineering methods are used to construct the full-length cDNA sequences of human membrane proteins into expression vectors, which are then transiently transfected into HEK293T cells and arranged into an array by using microfluidic technology or chip printing technology. It is a high-throughput screening technology for studying the interaction between test substances and membrane proteins.
(§2) A chimeric rabbit monoclonal antibody, C-CAR168 scFv-RabFc, was generated by linking the anti-CD20 scFv (e.g., derived from the Ofatumumab mAb) and the anti-BCMA scFv (e.g., derived from the BCMA-20 mAb) in frame with a rabbit IgG Fc region. The chimeric antibody was added at a concentration of 20 μg/mL to the HEK293T cell array transiently transfected with 5220 membrane proteins. […] The average fluorescence intensity of its binding to CD20 and BCMA in flow cytometry was about 60-fold and 110-fold of that of the negative control group, respectively (FIG. 8B). […] This is mainly due to the binding between FCGR1A and the rabbit-derived Fc of the recombinant protein; so there is no relevant risk in clinical applications.

human CD20 = target: T2, human CD20 (human, UniProt P11836 1-297); experiment: flow cytometry, HEK293T membrane protein array
T2 construct: whole, on cells; also called B1; MS4A
T2 sequence (looked up): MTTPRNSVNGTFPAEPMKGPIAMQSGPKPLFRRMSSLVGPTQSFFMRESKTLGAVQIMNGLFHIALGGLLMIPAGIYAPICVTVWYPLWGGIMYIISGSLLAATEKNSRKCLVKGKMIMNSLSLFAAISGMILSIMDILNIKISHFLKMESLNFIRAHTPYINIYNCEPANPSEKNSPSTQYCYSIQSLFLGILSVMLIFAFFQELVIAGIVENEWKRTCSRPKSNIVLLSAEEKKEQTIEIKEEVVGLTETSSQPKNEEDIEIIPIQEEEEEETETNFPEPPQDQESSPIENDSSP
Source text: as §1, §2

MPZ = target: T3, MPZ (human, UniProt P25189 30-248); experiment: flow cytometry, HEK293T membrane protein array, 20 µg/mL and 5 µg/mL
T3 construct: whole, on cells
T3 sequence (looked up): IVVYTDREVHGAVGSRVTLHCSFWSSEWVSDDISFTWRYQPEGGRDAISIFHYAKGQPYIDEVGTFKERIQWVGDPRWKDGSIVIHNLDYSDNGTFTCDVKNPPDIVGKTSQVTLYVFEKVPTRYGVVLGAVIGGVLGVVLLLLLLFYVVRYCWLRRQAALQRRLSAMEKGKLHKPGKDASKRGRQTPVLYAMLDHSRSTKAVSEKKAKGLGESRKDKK
Source text: as §1, §2

MC2R = target: T4, MC2R (human, UniProt Q01718 1-297); experiment: as above
T4 construct: whole, on cells
T4 sequence (Q01718 whole entry): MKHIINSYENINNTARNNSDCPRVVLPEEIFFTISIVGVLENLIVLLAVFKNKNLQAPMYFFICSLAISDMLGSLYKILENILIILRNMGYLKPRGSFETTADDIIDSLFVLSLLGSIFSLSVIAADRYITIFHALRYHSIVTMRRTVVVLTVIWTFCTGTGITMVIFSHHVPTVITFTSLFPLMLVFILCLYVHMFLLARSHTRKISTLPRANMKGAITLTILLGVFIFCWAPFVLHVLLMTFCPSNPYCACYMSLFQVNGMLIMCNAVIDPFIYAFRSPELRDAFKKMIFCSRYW
Source text: as §1, §2

CLEC2B = target: T5, CLEC2B (human, UniProt Q92478 1-149); experiment: as above
T5 construct: whole, on cells
T5 sequence (looked up): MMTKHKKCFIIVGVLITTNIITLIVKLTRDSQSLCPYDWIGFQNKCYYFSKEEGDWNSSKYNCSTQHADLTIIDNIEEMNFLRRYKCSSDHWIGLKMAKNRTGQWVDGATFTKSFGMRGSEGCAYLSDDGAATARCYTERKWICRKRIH
Source text: as §1, §2

FCGR1A (human), sequence (P12314 16-374): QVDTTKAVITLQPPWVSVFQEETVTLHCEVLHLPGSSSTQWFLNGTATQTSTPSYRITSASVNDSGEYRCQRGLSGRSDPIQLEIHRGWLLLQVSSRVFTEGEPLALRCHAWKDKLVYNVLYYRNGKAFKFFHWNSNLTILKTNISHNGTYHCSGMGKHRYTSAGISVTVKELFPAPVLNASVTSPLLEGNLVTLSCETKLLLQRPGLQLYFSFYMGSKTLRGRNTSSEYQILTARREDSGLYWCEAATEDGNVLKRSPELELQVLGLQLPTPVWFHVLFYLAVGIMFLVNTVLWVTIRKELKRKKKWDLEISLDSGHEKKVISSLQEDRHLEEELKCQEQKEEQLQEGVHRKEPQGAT
F11R (human), sequence (Q9Y624 28-299, stated change not applied): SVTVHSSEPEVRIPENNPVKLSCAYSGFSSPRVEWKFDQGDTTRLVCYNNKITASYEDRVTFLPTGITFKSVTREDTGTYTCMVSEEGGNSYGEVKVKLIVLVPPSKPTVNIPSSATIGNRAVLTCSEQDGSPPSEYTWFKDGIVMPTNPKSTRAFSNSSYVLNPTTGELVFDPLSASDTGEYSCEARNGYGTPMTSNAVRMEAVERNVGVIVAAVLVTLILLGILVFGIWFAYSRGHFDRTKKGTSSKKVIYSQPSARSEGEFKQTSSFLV

average fluorescence intensity, fold of the negative control group (FCGR1A (human)): 2.5 fold | average fluorescence intensity, fold of the negative control group (F11R (human)): < 2 fold | average fluorescence intensity, fold of the negative control group (human BCMA): ~110 fold | average fluorescence intensity, fold of the negative control group (human CD20): ~60 fold | average fluorescence intensity, fold of the negative control group (MPZ): ≤ 2 fold | average fluorescence intensity, fold of the negative control group (MC2R): ≤ 2 fold | average fluorescence intensity, fold of the negative control group (CLEC2B): ≤ 2 fold
B1: C-CAR168 scFv-RabFc (Fc fusion)
chain: EIVLTQSPATLSLSPGERATLSCRASQSVSSYLAWYQQKPGQAPRLLIYDASNRATGIPARFSGSGSGTDFTLTISSLEPEDFAVYYCQQRSNWPITFGQGTRLEIKGSTSGGGSGGGSGGGGSSEVQLVESGGGLVQPGRSLRLSCAASGFTFNDYAMHWVRQAPGKGLEWVSTISWNSGSIGYADSVKGRFTISRDNAKKSLYLQMNSLRAEDTALYYCAKDIQYGNYYYGMDVWGQGTTVTVSSGGGGSDIQMTQSPSSLSASVGDRVTITCRASQGISNYLNWYQQKPGKAPKPLIYYTSNLQSGVPSRFSGSGSGTDYTLTISSLQPEDFATYYCMGQTISSYTFGQGTKLEIKGGGGSGGGGSGGGGSEVQLVESGGGLVQPGGSLRLSCAASGFTFSNFDMAWVRQAPGKGLVWVSSITTGADHAIYADSVKGRFTISRDNAKNTLYLQMNSLRAEDTAVYYCVRHGYYDGYHLFDYWGQGTLVTVSS
notes: also called chimeric rabbit monoclonal antibody; not shown: rabbit IgG Fc region
